Patent US20050037947A1, “INHIBITION OF DRUG BINDING TO SERUM ALBUMIN” (priority 2003, published 2005)

Molecular target: T1, human serum albumin (Homo sapiens, UniProt P02768)
T1 construct: purchased Aventis, Bridgewater, N.J. Albuminar
Experiment: Serum albumin binding by surface plasmon resonance (BIACORE 3000)
Settings: SPR, immobilized serum albumin, 25° C., Req divided by molecular weight; for reduction of human serum albumin binding of the Fc chimeric protein compared to the unmodified molecule: unmodified molecule bound this many times as much
Method: Analysis of macromolecular interactions was performed using surface plasmon resonance as previously described (Frostell-Karlsson et al. 2000, J. Med. Chem. 43:1986). A BIACORE 3000 instrument (Biacore AB, Piscataway, N.J.) was used and all binding interactions were performed at 25° C. A carboxymethyl-modified dextran (CM5) sensor chip (Biacore AB, Piscataway, N.J.) was used for the analysis. Serum albumin (Albuminar, Aventis, Bridgewater, N.J.) was diluted to 100 μg/mL in 10 mM sodium acetate (pH 4.5) and immobilized to one flowcell of the sensor chip, using amine coupling as described (Frostell-Karlsson et al. 2000, J. Med. Chem. 43:1986). Final immobilization level was approximately 8500 Resonance Units (RU). A “mock-immobilized” surface using a separate flowcell was created using the same procedure in the absence of serum albumin and served as a reference for the binding studies.
Proteins or peptides (analyte) were diluted in HBS-N buffer (10 mM HEPES, pH 7.4; 150 mM NaCl) and injected over the serum albumin and reference surfaces for 3 minutes at a rate of 20 μL/min. After a 35 second dissociation phase, the surface was regenerated by a 30 second pulse of 10 mM glycine (pH 2.0) at a flow rate of 60 μL/min.
The sensorgrams (RU versus time) generated for the mock-coated flowcell were automatically subtracted from the serum albumin-coated sensorgrams. Response at equilibrium (Req) was measured 30 seconds before the end of the injection phase and divided by the molecular weight of the analyte, total response as is in part, a function of molecular weight. (Frostell-Karlsson et al. 2000, J. Med. Chem. 43:1986). Samples tested included T20 linked to Fc (i.e. T20-Fc produced in CHO cells and Fc-T20 produced in E. coli), a VLA4 antagonist linked to Fc, a GnRH peptide linked to Fc, PspA, a bacterial peptide fragment of S. pneumonia surface protein A, peptide YY a peptide involved in regulation of nutrient uptake and an Fc fragment of an immunoglobulin beginning with Cys 226 served as negative controls.

| Substance | reduction of human serum albumin binding of the Fc chimeric protein compared to the unmodified molecule | human serum albumin binding of the unmodified molecule compared to the same molecule linked to Fc (ratio unmodified molecule / Fc chimeric protein) |
| --- | --- | --- |
| Fc-T20: T20 linked to Fc, produced in E. coli | more than three |  |
| T20-Fc: T20 linked to Fc, produced in CHO cells | more than three |  |
| T20: HIV fusion inhibitor, a small peptide, fragment of gp41 (SEQ ID NO: 1) [reference compound] |  | more than three |
